According to patent US20210009686A1 (BEIJING XUANYI PHARMASCIENCES, published 2021):

Columns and labels:
claudin 18.2 (CLDN18.2) [1] = biological target: T1, claudin 18.2 (CLDN18.2) (human); test: FACS, hybridoma supernatant on HEK293-CLDN18.2;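 further: flow cytometry of hybridoma supernatants taken 10 days after fusion, applied to HEK293 cells stably expressing CLDN18.2, with MFI standing for mean fluorescence intensity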
T1 construct: also called Claudin 18 isotype 2; HEK293-CLDN18.2
Description: (§1) Ten days after fusion, hybridoma supernatants were screened by FACS against HEK293-CLDN18.2, HEK293-CLDN18.1 and HEK293.

claudin 18.2 (CLDN18.2) [2] = biological target: T1, claudin 18.2 (CLDN18.2); test: in-cell ELISA, hybridoma supernatant on HEK293-CLDN18.2 cells
Protocol: (§2) In-cell ELISAs were performed as follows: 5×10³ HEK293-CLDN18.2 cells were seeded per well in a poly-L-lysine-coated 96-well plate. The plates were then incubated at 37° C. with 5% CO₂ for 2 days. Following incubation, culture media was removed from each well, and the HEK293-CLDN18.2 cells were blocked with 200 μl blocking buffer (3% BSA/PBS (pH 7.4)) per well for 1 hour at room temperature. Each hybridoma supernatant was incubated with cells at room temperature for 1 hour. Cells were gently washed 3 times with 200 μl PBS (pH 7.4) containing 1 mM Ca²⁺ and 0.5 mM Mg²⁺. Next, cells were incubated with 100 μl of HRP-conjugated goat anti-human IgG (H+L) antibody for 1 hour at room temperature. Following the incubation, the cells were washed three times with 200 μl PBS (pH 7.4) containing 1 mM Ca²⁺ and 0.5 mM Mg²⁺. 100 μl of 1-Step™ Ultra TMB-ELISA Substrate was added to each well, and the reactions were stopped by addition of 50 μl of stop solution. OD₄₅₀ was measured using CLARIOStar microplate reader. The in-cell ELISAs were repeated for each clone using HEK293-CLDN18.1 cells.

claudin 18.1 (CLDN18.1) [3] = biological target: T2, claudin 18.1 (CLDN18.1) (human, UniProt P56856 1-261); test: in-cell ELISA, hybridoma supernatant on HEK293-CLDN18.1 cells
T2 construct: also called HEK293-CLDN18.1
Protocol: as §2

claudin 18.1 (CLDN18.1) [4] = biological target: T2, claudin 18.1 (CLDN18.1); test: FACS, hybridoma supernatant on HEK293-CLDN18.1
Description: as §1

T2 sequence (P56856 whole entry): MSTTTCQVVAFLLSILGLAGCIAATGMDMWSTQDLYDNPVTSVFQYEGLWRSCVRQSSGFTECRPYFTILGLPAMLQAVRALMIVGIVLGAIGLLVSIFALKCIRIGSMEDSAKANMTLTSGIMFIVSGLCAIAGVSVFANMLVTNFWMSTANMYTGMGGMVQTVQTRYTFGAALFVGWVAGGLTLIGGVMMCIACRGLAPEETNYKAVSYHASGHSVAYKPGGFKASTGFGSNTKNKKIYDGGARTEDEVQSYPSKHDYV

B1: hybridoma clone 10-P2-A (antibody, V domains shown)
VH: EVQLQQSGPALVKPGASVKMSCKASGYSFTGYNIHWVKQSHGKSLEWIGYIDPNNGVTYSNQKFKGKATLTVDKSSSTAYMQLNSLTSEDSAVYYCARPYYGNSFDYWGQGTTLTVSS
VL: DIVMTQSPSSLTVTAGEKVTMSCKSSQSLLNSGNLRNYLTWYQQKPGQPPKLLIYWASTRESGVPDRFTGSGSGTDFTLTINSVQAEDLALYFCQDGYFYPFPFGSGTKLVIK
- MFI (claudin 18.2 (CLDN18.2) [1]): 58900
- OD450/µg IgG (claudin 18.2 (CLDN18.2) [2]): 4.71 OD450/µg IgG
- OD450/µg IgG (claudin 18.1 (CLDN18.1) [3]): 0.34 OD450/µg IgG
- MFI (claudin 18.1 (CLDN18.1) [4]): 10900

B2: hybridoma clone 10-J10-B (antibody, V domains shown)
VH: QVQLQQSGAELARPGASVKLSCKASGYTFTSWSISWVKQRTGQGLEWIGEIYPRSDNIHYNEKFKGKATLTADKSSSTVYMQLSSLTSEDSAVYFCARAYYGNSFAYWGQGTLVTVSA
VL: DIVMTQSPSSLTVTAGEKVTMTCKSSQILLNSGNQKNYLTWYQQKPGQPPKLLIYWASTRESGVPDRFTGSGSGTDFSLTISSVQAEDLAIYYCQNDYYYPFTFGSGTKLEIK
- MFI (claudin 18.2 (CLDN18.2) [1]): 136000
- OD450/µg IgG (claudin 18.2 (CLDN18.2) [2]): 102 OD450/µg IgG
- OD450/µg IgG (claudin 18.1 (CLDN18.1) [3]): 3.05 OD450/µg IgG
- MFI (claudin 18.1 (CLDN18.1) [4]): 20400

B3: hybridoma clone 9-A13-B (antibody, V domains shown)
VH: EVQLVESGGGLVKPGGSRKLSCAASGFSFSDYGMHWVRQAPEKGLEWVAHISSGSSTIYYADTMKGRFTISRDNAKNTLFLQMTSLRSEDTAMYYCARFARGNTMDYWGQGTSVTVSS
VL: DIVMTQSPSSLTVTAGEKVTMSCKSSQSLLNSGNQKNYLTWYQQKPGQPPKLLIYWASTRESGVPDRFTGSGSGTDFTLTISSVQAEDLTVYYCQNGYSYPLTFGAGTKLELK
- MFI (claudin 18.2 (CLDN18.2) [1]): 61400
- OD450/µg IgG (claudin 18.2 (CLDN18.2) [2]): 48.6 OD450/µg IgG
- OD450/µg IgG (claudin 18.1 (CLDN18.1) [3]): 3.34 OD450/µg IgG
- MFI (claudin 18.1 (CLDN18.1) [4]): 6930

B4: hybridoma clone 9-M7-A (antibody, V domains shown)
VH: EVQLVESGGALVKPGGSLKLSCAASGFTFSNYAMSWIRQTPEKRLEWVATIIIGGTYTYYPDSVKGRFTISRDNAKNTLYLQMSSLRSEDTALYYCARQVYGNSFAYWGQGTLVTVSA
VL: DIVMTQSPSSLTVTAGEKVTMSCKSSQSLLNSGNQKNYLTWYQQKPGQPPKLLIYWASTRESGVPDRFTGSGSGTDFTLTISSVQAEDLAVYYCQNNYIYPFTFGSGTKLEIK
- MFI (claudin 18.2 (CLDN18.2) [1]): 70300
- OD450/µg IgG (claudin 18.2 (CLDN18.2) [2]): 19.2 OD450/µg IgG
- OD450/µg IgG (claudin 18.1 (CLDN18.1) [3]): 0.79 OD450/µg IgG
- MFI (claudin 18.1 (CLDN18.1) [4]): 7740

B5: hybridoma 1-B13-A (antibody, V domains shown)
VH: QVQLQQSGAELARPGASVKLSCKASGYTFTVWSMSWVKQRTGQGLQWIGEIYPKSGNTHYNEKFKGKATLTADKSSSTVYMQLSSLTSEDSAVYFCARAYYGNSFAYWGQGTLVTVPA
VL: DIVMTQSPSPLTVTAGEKATMSCKSSQSLLNSGNQRNYLTWYQQKPGQPPKLLIYWASTRESGVPDRFTGSGSGTDFSLTISSVQAEDLAVYYCQNDFIYPFTFGSGTKLEIK
- MFI (claudin 18.2 (CLDN18.2) [1]): 61900
- MFI (claudin 18.1 (CLDN18.1) [4]): 10200

B6: hybridoma clone 1-M5-A (antibody, V domains shown)
VH: EVQLVESGGALVKSGGSLRLSCAASGFTFSNNAMSWIRQTPEKRLEWVATIIIGGTYTYYPDSVKGRFTISRDNAKNTLYLQMSSLRSEDTAFYYCARQVYGNSFAYWGQGTLVSVSA
VL: DIVMTQSPSSLTVTAGEKVTMSCKSSQSLLNSGNQKNYLTWYQQKPGQPPKLLIYWASTRESGVPDRFTGSGSGTDFTLTISSVQAEDLAVYYCQNNYFYPFTFGSGTKLEIK
- MFI (claudin 18.2 (CLDN18.2) [1]): 59200
- OD450/µg IgG (claudin 18.2 (CLDN18.2) [2]): 21.1 OD450/µg IgG
- OD450/µg IgG (claudin 18.1 (CLDN18.1) [3]): 1.11 OD450/µg IgG
- MFI (claudin 18.1 (CLDN18.1) [4]): 7950

B7: hybridoma clone 6-C5-A (antibody, V domains shown)
VH: EVQLVESGGGLVKPGGSRKLSCAASGFTFSDYGMHWVRQAPEKGLEWVAYISSGSSTIYYADTMKGRFTISRDNAKNTLFLQMTSLRSEDTAMYYCTRFARGNTMDYWGQGTSVTVSS
VL: DIVMTQSPSSLTVTAGEKVTMSCKSSQSLLNSGNQRNYLTWYQRKPGQPPKLLIYWASTRESGVPDRFTGSGSGTDFTLTISSVQAEDLTFYYCQNGYSYPLTFGAGTKLELK
- MFI (claudin 18.2 (CLDN18.2) [1]): 94700
- OD450/µg IgG (claudin 18.2 (CLDN18.2) [2]): 12.2 OD450/µg IgG
- OD450/µg IgG (claudin 18.1 (CLDN18.1) [3]): 1.04 OD450/µg IgG
- MFI (claudin 18.1 (CLDN18.1) [4]): 8130

B8: hybridoma clone 4-N1-A (antibody, V domains shown)
VH: EVQLVNSGGGLVKPGGSRKLSCAASGFTFSDYGMHWVRQAPEKGLEWVAYISSGSSTIYYADTMKGRFTISRDNAKNTLFLQMTSLRSEDTAMYYCARFVRGNSMDYWGQGTSVTVSS
VL: DIVMTQSPSSLTVTAGEKVTMSCKSSQSLLNSGNQKNYLTWYQQKPGQPPKLLIYWASTRESGVPDRFTGSGSGTDFTLTISSVQAEDLTVYYCQNAYSYPLTFGAGTKLELK
- MFI (claudin 18.2 (CLDN18.2) [1]): 80100
- OD450/µg IgG (claudin 18.2 (CLDN18.2) [2]): 18 OD450/µg IgG
- OD450/µg IgG (claudin 18.1 (CLDN18.1) [3]): 2.87 OD450/µg IgG
- MFI (claudin 18.1 (CLDN18.1) [4]): 12100

B9: hybridoma clone 7-B15-A (antibody, V domains shown)
VH: EVQLVESGGGLVKPGGSRKLSCAASGFTFSDYGMHWVRQAPEKGLEWIAHISSGSSTIYYADTMKGRFTISRDNAKNTLFLQMTSLRSEDTAMYYCARFVRGNALDYWGQGTSVTVSS
VL: DIVMTQSPSSLTVTAGEKVTMNCKSSQSLLNSGNQKNYLTWYQQKPGQPPKLLIYWASTRESGVPDRFTGSGSGTDFTLTISSVQAEDLTVYYCQNGYSYPLTFGAGTKLELK
- MFI (claudin 18.2 (CLDN18.2) [1]): 105000
- OD450/µg IgG (claudin 18.2 (CLDN18.2) [2]): 13.2 OD450/µg IgG
- OD450/µg IgG (claudin 18.1 (CLDN18.1) [3]): 1.32 OD450/µg IgG
- MFI (claudin 18.1 (CLDN18.1) [4]): 11200
